Data taken from FireProtDB (doi:10.1021/bi00135a019).

Conditions: Aspergillus oryzae (strain ATCC 42149 / RIB 40), DSC, reversible: yes, whole UniProt chain shown; for Tm / heat capacity change of unfolding / unfolding enthalpy (calorimetric) / unfolding enthalpy (van 't Hoff): Thermal; for denaturant m value / denaturant midpoint (higher = more stable) / unfolding free energy: Urea, MOPS 30 mM
[1] = pH 7, PIPES 30 mM, MgCl2 0.01 M
[2] = pH 7, PIPES 30 mM, MgCl2 0.02 M
[3] = pH 7, PIPES 30 mM, MgCl2 0.03 M
[4] = pH 7, PIPES 30 mM, MgCl2 0.06 M
[5] = pH 7, PIPES 30 mM, MgCl2 0.10 M
[6] = pH 7, PIPES 30 mM, MgCl2 0.20 M
[7] = pH 7, PIPES 30 mM, MgCl2 0.40 M
[8] = pH 7, PIPES 30 mM, MgCl2 0.60 M
[9] = pH 7, PIPES 30 mM, MgCl2 0.80 M

B1: Guanyl-specific ribonuclease T1 wild type, P00651 (protein)
chain: MMYSKLLTLTTLLLPTALALPSLVERACDYTCGSNCYSSSDVSTAQAAGYQLHEDGETVGSNSYPHKYNNYEGFDFSVSSPYYEWPILSSGDVYSGGSPGADRVVFNENNQLAGVITHTGASGNNFVECT
pH 2.2, glycine 30 mM
  Tm: 45.4 °C
  heat capacity change of unfolding: 1.53 kcal/mol/K
  unfolding enthalpy (calorimetric): 89.6 kcal/mol
  unfolding enthalpy (van 't Hoff): 114 kcal/mol
pH 2.8, glycine 30 mM
  Tm: 49 °C
  heat capacity change of unfolding: 1.64 kcal/mol/K
  unfolding enthalpy (calorimetric): 95.3 kcal/mol
  unfolding enthalpy (van 't Hoff): 109 kcal/mol
pH 4, acetate 30 mM
  Tm: 56.7 °C
  heat capacity change of unfolding: 2.47 kcal/mol/K
  unfolding enthalpy (calorimetric): 102 kcal/mol
  unfolding enthalpy (van 't Hoff): 114 kcal/mol
pH 5, acetate 30 mM
  Tm: 56.5 °C
  heat capacity change of unfolding: 1.74 kcal/mol/K
  unfolding enthalpy (calorimetric): 106 kcal/mol
  unfolding enthalpy (van 't Hoff): 117 kcal/mol
pH 7, 14.9 °C
  denaturant m value: 1.26 kcal/mol/M
  denaturant midpoint (higher = more stable): 5.65 M
  unfolding free energy: 6.84 kcal/mol
pH 7, 21.1 °C
  denaturant m value: 1.1 kcal/mol/M
  denaturant midpoint (higher = more stable): 4.98 M
  unfolding free energy: 6.03 kcal/mol
pH 7, 23.05 °C
  denaturant m value: 1.2 kcal/mol/M
  denaturant midpoint (higher = more stable): 4.86 M
  unfolding free energy: 5.89 kcal/mol
pH 7, 25 °C
  denaturant m value: 1.2 kcal/mol/M
  denaturant midpoint (higher = more stable): 4.58 M
  unfolding free energy: 5.55 kcal/mol
pH 7, 27 °C
  denaturant m value: 1.2 kcal/mol/M
  denaturant midpoint (higher = more stable): 4.14 M
  unfolding free energy: 5.01 kcal/mol
pH 7, 29 °C
  denaturant m value: 1.27 kcal/mol/M
  denaturant midpoint (higher = more stable): 3.93 M
  unfolding free energy: 4.76 kcal/mol
pH 7, 34.75 °C
  denaturant m value: 1.22 kcal/mol/M
  denaturant midpoint (higher = more stable): 2.92 M
  unfolding free energy: 3.54 kcal/mol
pH 7, 40.1 °C
  denaturant m value: 1.28 kcal/mol/M
  denaturant midpoint (higher = more stable): 2.13 M
  unfolding free energy: 2.58 kcal/mol
pH 7, PIPES 30 mM, MgCl2 0 M
  Tm: 48.9 °C
  heat capacity change of unfolding: 1.35 kcal/mol/K
  unfolding enthalpy (calorimetric): 95.5 kcal/mol
  unfolding enthalpy (van 't Hoff): 118 kcal/mol
[1]
  Tm: 52.4 °C
  heat capacity change of unfolding: 1.22 kcal/mol/K
  unfolding enthalpy (calorimetric): 98.2 kcal/mol
  unfolding enthalpy (van 't Hoff): 117 kcal/mol
[2]
  Tm: 53.5 °C
  heat capacity change of unfolding: 0.86 kcal/mol/K
  unfolding enthalpy (calorimetric): 98.9 kcal/mol
  unfolding enthalpy (van 't Hoff): 117 kcal/mol
[3]
  Tm: 54 °C
  heat capacity change of unfolding: 0.94 kcal/mol/K
  unfolding enthalpy (calorimetric): 99.1 kcal/mol
  unfolding enthalpy (van 't Hoff): 119 kcal/mol
[4]
  Tm: 55.4 °C
  heat capacity change of unfolding: 1.02 kcal/mol/K
  unfolding enthalpy (calorimetric): 104 kcal/mol
  unfolding enthalpy (van 't Hoff): 120 kcal/mol
[5]
  Tm: 56.6 °C
  heat capacity change of unfolding: 1.11 kcal/mol/K
  unfolding enthalpy (calorimetric): 104 kcal/mol
  unfolding enthalpy (van 't Hoff): 121 kcal/mol
[6]
  Tm: 58.1 °C
  heat capacity change of unfolding: 0.71 kcal/mol/K
  unfolding enthalpy (calorimetric): 104 kcal/mol
  unfolding enthalpy (van 't Hoff): 122 kcal/mol
[7]
  Tm: 60.1 °C
  heat capacity change of unfolding: 1.22 kcal/mol/K
  unfolding enthalpy (calorimetric): 108 kcal/mol
  unfolding enthalpy (van 't Hoff): 122 kcal/mol
[8]
  Tm: 61.9 °C
  heat capacity change of unfolding: 1.07 kcal/mol/K
  unfolding enthalpy (calorimetric): 109 kcal/mol
  unfolding enthalpy (van 't Hoff): 125 kcal/mol
[9]
  Tm: 63 °C
  heat capacity change of unfolding: 1.14 kcal/mol/K
  unfolding enthalpy (calorimetric): 111 kcal/mol
  unfolding enthalpy (van 't Hoff): 121 kcal/mol
pH 7, PIPES 30 mM, NaCl 0 M
  Tm: 48.9 °C
  heat capacity change of unfolding: 1.35 kcal/mol/K
  unfolding enthalpy (calorimetric): 95.5 kcal/mol
  unfolding enthalpy (van 't Hoff): 118 kcal/mol
pH 7, PIPES 30 mM, NaCl 0.05 M
  Tm: 51 °C
  heat capacity change of unfolding: 0.93 kcal/mol/K
  unfolding enthalpy (calorimetric): 99.5 kcal/mol
  unfolding enthalpy (van 't Hoff): 120 kcal/mol
pH 7, PIPES 30 mM, NaCl 0.10 M
  Tm: 52.1 °C
  heat capacity change of unfolding: 1.6 kcal/mol/K
  unfolding enthalpy (calorimetric): 101 kcal/mol
  unfolding enthalpy (van 't Hoff): 119 kcal/mol
pH 7, PIPES 30 mM, NaCl 0.20 M
  Tm: 53.9 °C
  heat capacity change of unfolding: 1.31 kcal/mol/K
  unfolding enthalpy (calorimetric): 105 kcal/mol
  unfolding enthalpy (van 't Hoff): 121 kcal/mol
pH 7, PIPES 30 mM, NaCl 0.40 M
  Tm: 56.5 °C
  heat capacity change of unfolding: 1.4 kcal/mol/K
  unfolding enthalpy (calorimetric): 107 kcal/mol
  unfolding enthalpy (van 't Hoff): 121 kcal/mol
pH 7, PIPES 30 mM, NaCl 0.60 M
  Tm: 58.5 °C
  heat capacity change of unfolding: 1.31 kcal/mol/K
  unfolding enthalpy (calorimetric): 111 kcal/mol
  unfolding enthalpy (van 't Hoff): 122 kcal/mol
pH 7, PIPES 30 mM, NaCl 0.80 M
  Tm: 60.2 °C
  heat capacity change of unfolding: 2.11 kcal/mol/K
  unfolding enthalpy (calorimetric): 111 kcal/mol
  unfolding enthalpy (van 't Hoff): 124 kcal/mol
pH 7, PIPES 30 mM, NaCl 1.20 M
  Tm: 63.2 °C
  heat capacity change of unfolding: 1.42 kcal/mol/K
  unfolding enthalpy (calorimetric): 112 kcal/mol
  unfolding enthalpy (van 't Hoff): 126 kcal/mol
pH 7, PIPES 30 mM, NaCl 1.60 M
  Tm: 65.6 °C
  heat capacity change of unfolding: 1.37 kcal/mol/K
  unfolding enthalpy (calorimetric): 115 kcal/mol
  unfolding enthalpy (van 't Hoff): 125 kcal/mol
pH 7, PIPES 30 mM
  Tm: 48.9 °C
  heat capacity change of unfolding: 1.35 kcal/mol/K
  unfolding enthalpy (calorimetric): 95.5 kcal/mol
  unfolding enthalpy (van 't Hoff): 119 kcal/mol
pH 7.5, PIPES 30 mM
  Tm: 46.7 °C
  heat capacity change of unfolding: 1.71 kcal/mol/K
  unfolding enthalpy (calorimetric): 93.2 kcal/mol
  unfolding enthalpy (van 't Hoff): 121 kcal/mol
pH 8, PIPES 30 mM
  Tm: 45.8 °C
  heat capacity change of unfolding: 0.88 kcal/mol/K
  unfolding enthalpy (calorimetric): 91.6 kcal/mol
  unfolding enthalpy (van 't Hoff): 116 kcal/mol
pH 9, glycine 30 mM
  Tm: 40.7 °C
  heat capacity change of unfolding: 0.42 kcal/mol/K
  unfolding enthalpy (calorimetric): 76.5 kcal/mol
  unfolding enthalpy (van 't Hoff): 114 kcal/mol
pH 10, glycine 30 mM
  Tm: 39.4 °C
  unfolding enthalpy (calorimetric): 76.9 kcal/mol
  unfolding enthalpy (van 't Hoff): 104 kcal/mol
